Laboratory results as given in US20210054097A1 (Novo Nordisk, published 2021).

B1: Nb 701C06 (VHH)
VHH: EVQLVESGGGVVQPGGSLRLSCAASGRTFSTYAMGWFRQAPGKEREFVAAISRRGGRTYYADSVKGRFTISRDNSKNTVYLQMNSLRPEDTALYYCAADATARDGLLDYWGQGTLVTVSS
notes: monovalent Nanobody; not shown: C-terminal FLAG3 and HIS6 tag
B2: Nb 701B09 (VHH)
VHH: EVQLVESGGGVVQPGGSLRLSCAASGRTFSTYAMGWFRQAPGKEREFVAAISWSGSRTYYADSVKGRFTISRDNSKNTVYLQMNSLRPEDTALYYCAADATPANGELDYWGQGTLVTVSS
notes: monovalent Nanobody; also called Nb 701609; not shown: C-terminal FLAG3 and HIS6 tag
B3: Nb 701D07 (VHH)
VHH: EVQLVESGGGVVQPGGSLRLSCAASGGTLSRYAMGWFRQAPGKEREFVAAITRRGSRTYYADSVKGRFTISRDNSKNTVYLQMNSLRPEDTALYYCAADLAPGDYALDYWGQGTLVTVSS
notes: as for B1
B4: Nb 702C12 (VHH)
VHH: EVQLVESGGGVVQPGGSLRLSCVASGRTFSRYAMGWFRQAPGKEREFVAAISRRGGSTNYADSVKGRFTISRDNSKNTVYLQMNSLRPEDTALYYCAADYSSGDGYLDYWGQGTLVTVSS
notes: as for B1

Target: T1, human plasma-derived Factor X zymogen (human, UniProt P00742 41-179; P00742 183-488)
T1 construct: Plasma-derived, bought (Haematologic Technologies); also called FX; human FX
T1 sequence (P00742 41-179, chain 1 of 2): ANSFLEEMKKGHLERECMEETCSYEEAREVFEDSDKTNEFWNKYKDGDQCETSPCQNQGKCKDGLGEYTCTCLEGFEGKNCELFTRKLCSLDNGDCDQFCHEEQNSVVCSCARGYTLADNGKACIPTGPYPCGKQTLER
T1 sequence (P00742 183-488, chain 2 of 2): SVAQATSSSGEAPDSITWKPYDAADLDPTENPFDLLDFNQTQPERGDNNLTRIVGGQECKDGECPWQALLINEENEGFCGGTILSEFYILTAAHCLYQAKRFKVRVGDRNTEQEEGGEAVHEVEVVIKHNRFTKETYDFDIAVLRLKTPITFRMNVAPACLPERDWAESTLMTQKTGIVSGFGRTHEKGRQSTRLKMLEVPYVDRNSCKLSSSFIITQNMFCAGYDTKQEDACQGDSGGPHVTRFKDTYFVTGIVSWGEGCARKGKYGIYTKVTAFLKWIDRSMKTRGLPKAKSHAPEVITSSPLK
Assay: SPR steady state, Nb captured by anti-His mAb, FX injected
Method: Binding of purified anti-FX Nanobodies (Nb) to human plasma-derived FX (Haematologic Technologies Inc, USA) was probed by Surface Plasmon Resonance (SPR) (Biacore T200). Briefly, anti-His mAb (MAB050 from R&D systems) was immobilised on a CM4 sensor chip using standard amine coupling chemistry. Anti-FX Nanobodies (10 nM), according to Table 3, was injected at a flow rate of 10 μL/min for 1 minute. Subsequently 4096, 1024, 256, 64, 16, 4, and 0 nM of FX were injected at a flow rate of 30 μL/min for 4 minutes to allow for binding to anti-FX Nb followed by a 5 minutes running buffer (10 mM HEPES, 150 mM NaCl, 5 mM CaCl₂, 0.05% (v/v) Surfactant P20, 1 mg/mL bovine serum albumin, pH 7.4) injection allowing dissociation from anti-FX Nanobody®. The running buffer was also for dilution of anti-FX Nb and FX samples. Regeneration of the chip was achieved using a regeneration buffer consisting of 3M MgCl₂, 30 seconds contact time, and a 30 μL/min flow rate. The binding data were collected at 25° C. and were analysed according to a 1:1 model using BiaEvaluation 4.1 supplied by the manufacturer (Biacore AB, Uppsala, Sweden).
Therefore, the reported KD values are determined based on steady state analysis. The strongest binder identified is Nb702C12, while the others Nanobodies® tested binds FX with a slightly higher KD and lower Rₘₐₓ.

Point of comparison: B3, Kd 2400 nM. Against it:
- B1 — 2.5-fold lower, 960 nM
- B2 — within 1.5-fold, 2100 nM
- B4 — 2-fold lower, 1200 nM
